{
  "source": "patent US20040254135",
  "about": "“Modulation of metabolism of steroids and xenobiotics” (published 2004)",
  "binders": {"B1": {"name": "UGT1A6 DR-3 (dsDNA)", "DNA 1": "ACTGTAGTTCATAAAGTTCACATGG", "DNA 2": "CCATGTGAACTTTATGAACTACAGT"}},
  "key": {"SXR:RXR heterodimer": {"target": "SXR:RXR heterodimer (UniProt O75469;P19793 O75469:1-434,P19793:1-462)", "sequence (O75469 whole entry, chain 1 of 2)": "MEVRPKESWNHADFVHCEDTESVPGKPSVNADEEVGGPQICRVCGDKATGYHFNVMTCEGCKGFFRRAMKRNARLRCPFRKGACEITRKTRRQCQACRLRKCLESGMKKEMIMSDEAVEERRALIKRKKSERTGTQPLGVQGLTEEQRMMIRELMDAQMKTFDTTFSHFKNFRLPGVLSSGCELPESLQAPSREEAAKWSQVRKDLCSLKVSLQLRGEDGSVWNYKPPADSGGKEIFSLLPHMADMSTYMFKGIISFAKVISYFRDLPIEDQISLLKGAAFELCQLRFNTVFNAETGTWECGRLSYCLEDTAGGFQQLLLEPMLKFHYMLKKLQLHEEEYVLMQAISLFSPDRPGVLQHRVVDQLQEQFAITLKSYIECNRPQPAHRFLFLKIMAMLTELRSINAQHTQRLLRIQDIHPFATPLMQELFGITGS", "sequence (P19793 whole entry, chain 2 of 2)": "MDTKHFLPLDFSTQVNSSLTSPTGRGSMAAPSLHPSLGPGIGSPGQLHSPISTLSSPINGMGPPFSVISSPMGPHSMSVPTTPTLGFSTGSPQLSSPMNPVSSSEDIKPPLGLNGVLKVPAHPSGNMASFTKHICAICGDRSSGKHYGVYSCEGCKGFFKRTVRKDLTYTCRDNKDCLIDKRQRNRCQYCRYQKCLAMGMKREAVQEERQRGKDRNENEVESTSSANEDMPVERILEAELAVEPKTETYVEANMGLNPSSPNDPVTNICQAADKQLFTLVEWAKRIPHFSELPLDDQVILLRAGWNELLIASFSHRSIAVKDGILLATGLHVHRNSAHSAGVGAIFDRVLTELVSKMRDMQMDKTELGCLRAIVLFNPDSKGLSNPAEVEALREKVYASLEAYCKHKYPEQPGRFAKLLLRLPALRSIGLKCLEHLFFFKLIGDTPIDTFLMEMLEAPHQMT", "experiment": "EMSA"}, "CAR:RXR heterodimer": {"target": "CAR:RXR heterodimer (UniProt Q14994;P19793 Q14994:1-352,P19793:1-462)", "sequence (Q14994 whole entry, chain 1 of 2)": "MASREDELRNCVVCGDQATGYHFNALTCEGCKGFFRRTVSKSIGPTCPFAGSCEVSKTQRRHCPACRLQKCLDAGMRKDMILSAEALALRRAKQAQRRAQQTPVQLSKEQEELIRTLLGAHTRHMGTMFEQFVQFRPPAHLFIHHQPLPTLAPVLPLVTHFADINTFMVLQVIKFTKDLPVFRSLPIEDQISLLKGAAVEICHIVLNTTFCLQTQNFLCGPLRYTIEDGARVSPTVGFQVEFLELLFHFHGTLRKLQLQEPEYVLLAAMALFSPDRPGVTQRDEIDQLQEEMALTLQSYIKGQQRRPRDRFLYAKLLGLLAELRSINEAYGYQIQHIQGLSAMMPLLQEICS", "sequence (P19793 whole entry, chain 2 of 2)": "as the sequence (P19793 whole entry, chain 2 of 2) above", "experiment": "EMSA"}},
  "data": [
    {"binder": "B1", "values": [
      {"measurement": "binding result", "setting": "SXR:RXR heterodimer", "value": "binds"},
      {"measurement": "binding result", "setting": "CAR:RXR heterodimer", "value": "binds"}
    ]}
  ]
}
